± gives the standard deviation of the averaged measurements.
Tested on: ATP
Assay: switch fluorescence ratio, 500 uM ATP over buffer (Cy3 cluster intensity, sum of 5 cycles each) (fold (ratio)); higher = stronger signal-on switching upon ATP binding; sequences stand for … in TCGTCGGCAGCGTCAGATGTGTATAAGAGACAGTTTTTTTTTTTTTTTTTTTTTTTTT…TC
Conditions: aptamer strand: ATP DNA aptamer (quencher-CACCTGGGGGAGTATTGCGGAGGAAGG + anchor), 100 nM annealed; ATP concentration: 500 uM
How it was run: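 Between each of five buffer/ATP cycles, the flow-cell was stripped with NaOH and re-annealed. Each cycle imaged Cy3-labelled switching-strand clusters, annealed to 100 nM quencher-labelled ATP aptamer on a modified Illumina MiSeq flow-cell, first in selection buffer and then after 15 min with 500 uM ATP at 22 °C. The fluorescence ratio is summed target-cycle over summed buffer-cycle Cy3 intensity per cluster, averaged per switch-domain sequence, with clusters outside 100-1000 RFU excluded.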
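Note: ATP exposure 15 min at 22 °C before imaging.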

**Q.** Which switch fluorescence ratio does the source give for GGGGAAATGG here?
**A.** 1.01 ± 0.025

**Q.** Which switch fluorescence ratio does the source give for GGGGAACGGC here?
**A.** 0.963 ± 0.036

**Q.** For GGGGAACGTT, which switch fluorescence ratio is on record?
**A.** 0.947 ± 0.049

**Q.** With GGGGAACTTC as the sequence, how does the switch fluorescence ratio read?
**A.** 1.05 ± 0.045

**Q.** Which switch fluorescence ratio does the source give for GGGGAAGCCA here?
**A.** 0.979 ± 0.024

**Q.** With GGGGAAGGCA as the sequence, how does the switch fluorescence ratio read?
**A.** 0.946 ± 0.084

**Q.** How did the switch fluorescence ratio turn out when GGGGAAGGCC was run?
**A.** 1.01 ± 0.018

**Q.** How did the switch fluorescence ratio turn out when GGGGAAGTAC was run?
**A.** 1.53 ± 0.31

**Q.** For GGGGAATGGC, which switch fluorescence ratio is on record?
**A.** 1.05 ± 0.1

**Q.** With GGGGAATTTA as the sequence, how does the switch fluorescence ratio read?
**A.** 1 ± 0.024

**Q.** For GGGGACATGC, which switch fluorescence ratio is on record?
**A.** 0.982 ± 0.078

**Q.** How did the switch fluorescence ratio turn out when GGGGACCAGT was run?
**A.** 0.9845 ± 0.0031

**Q.** GGGGACCCTG was tested. Which switch fluorescence ratio did it give?
**A.** 0.974 ± 0.029

**Q.** With GGGGACCGGC as the sequence, how does the switch fluorescence ratio read?
**A.** 0.954 ± 0.041

**Q.** Which switch fluorescence ratio does the source give for GGGGACGAAA here?
**A.** 0.997 ± 0.013

**Q.** GGGGACGAAT was tested. Which switch fluorescence ratio did it give?
**A.** 1.002 ± 0.0025

**Q.** GGGGACGACC was tested. Which switch fluorescence ratio did it give?
**A.** 1.03 ± 0.017

**Q.** For GGGGACGGGC, which switch fluorescence ratio is on record?
**A.** 1.04 ± 0.075

**Q.** With GGGGACTGGG as the sequence, how does the switch fluorescence ratio read?
**A.** 1 ± 0.058

**Q.** With GGGGACTTAG as the sequence, how does the switch fluorescence ratio read?
**A.** 0.9854 ± 0.0025

**Q.** GGGGACTTGG was tested. Which switch fluorescence ratio did it give?
**A.** 1 ± 0.027

**Q.** For GGGGAGACTG, which switch fluorescence ratio is on record?
**A.** 0.956 ± 0.028

**Q.** For GGGGAGGAAA, which switch fluorescence ratio is on record?
**A.** 0.999 ± 0.029

**Q.** For GGGGAGGCAC, which switch fluorescence ratio is on record?
**A.** 0.9854 ± 0.002

**Q.** For GGGGAGGGGA, which switch fluorescence ratio is on record?
**A.** 1.01 ± 0.04

**Q.** With GGGGAGGGTG as the sequence, how does the switch fluorescence ratio read?
**A.** 1.05 ± 0.074

**Q.** For GGGGAGGTTG, which switch fluorescence ratio is on record?
**A.** 0.991 ± 0.037

**Q.** Which switch fluorescence ratio does the source give for GGGGAGGTTT here?
**A.** 0.966 ± 0.02

**Q.** How did the switch fluorescence ratio turn out when GGGGAGTCGA was run?
**A.** 1.03 ± 0.068

**Q.** How did the switch fluorescence ratio turn out when GGGGAGTGAA was run?
**A.** 0.992 ± 0.031

**Q.** Which switch fluorescence ratio does the source give for GGGGAGTTAC here?
**A.** 1.35 ± 0.44

**Q.** With GGGGATAAGA as the sequence, how does the switch fluorescence ratio read?
**A.** 0.985 ± 0.036

**Q.** GGGGATAAGC was tested. Which switch fluorescence ratio did it give?
**A.** 0.992 ± 0.048

**Q.** Which switch fluorescence ratio does the source give for GGGGATACGC here?
**A.** 1.03 ± 0.012

**Q.** Which switch fluorescence ratio does the source give for GGGGATACTG here?
**A.** 1.31 ± 0.33

**Q.** For GGGGATCGTT, which switch fluorescence ratio is on record?
**A.** 1.02 ± 0.021

**Q.** GGGGATGAGC was tested. Which switch fluorescence ratio did it give?
**A.** 1.04 ± 0.037

**Q.** How did the switch fluorescence ratio turn out when GGGGATGCAG was run?
**A.** 0.985 ± 0.049

**Q.** How did the switch fluorescence ratio turn out when GGGGATGTGC was run?
**A.** 1.01 ± 0.04

**Q.** Which switch fluorescence ratio does the source give for GGGGATTAAT here?
**A.** 0.99 ± 0.042

**Q.** How did the switch fluorescence ratio turn out when GGGGATTACG was run?
**A.** 0.984 ± 0.026

**Q.** With GGGGATTAGG as the sequence, how does the switch fluorescence ratio read?
**A.** 0.988 ± 0.015

**Q.** For GGGGATTATG, which switch fluorescence ratio is on record?
**A.** 0.997 ± 0.046

**Q.** Which switch fluorescence ratio does the source give for GGGGATTCAA here?
**A.** 0.988 ± 0.018

**Q.** How did the switch fluorescence ratio turn out when GGGGATTGCT was run?
**A.** 0.986 ± 0.025

**Q.** GGGGATTTTG was tested. Which switch fluorescence ratio did it give?
**A.** 0.9746 ± 0.0022

**Q.** With GGGGATTTTT as the sequence, how does the switch fluorescence ratio read?
**A.** 1 ± 0.035

**Q.** GGGGCAAATT was tested. Which switch fluorescence ratio did it give?
**A.** 1.05 ± 0.12

**Q.** With GGGGCAACGG as the sequence, how does the switch fluorescence ratio read?
**A.** 1.05 ± 0.12

**Q.** Which switch fluorescence ratio does the source give for GGGGCACTGG here?
**A.** 1.03 ± 0.028

**Q.** How did the switch fluorescence ratio turn out when GGGGCAGAGG was run?
**A.** 0.997 ± 0.043

**Q.** Which switch fluorescence ratio does the source give for GGGGCAGGTG here?
**A.** 1.27 ± 0.39

**Q.** With GGGGCATAAG as the sequence, how does the switch fluorescence ratio read?
**A.** 1.01 ± 0.013

**Q.** Which switch fluorescence ratio does the source give for GGGGCATGAG here?
**A.** 1.04 ± 0.021

**Q.** Which switch fluorescence ratio does the source give for GGGGCATTTA here?
**A.** 0.9643 ± 0.0047

**Q.** Which switch fluorescence ratio does the source give for GGGGCCAGCT here?
**A.** 0.974 ± 0.043

**Q.** Which switch fluorescence ratio does the source give for GGGGCCATTT here?
**A.** 0.99 ± 0.033

**Q.** Which switch fluorescence ratio does the source give for GGGGCCCAGG here?
**A.** 1 ± 0.067

**Q.** For GGGGCCGAAT, which switch fluorescence ratio is on record?
**A.** 1.01 ± 0.021

**Q.** Which switch fluorescence ratio does the source give for GGGGCGATTG here?
**A.** 1.02 ± 0.013

**Q.** For GGGGCGCGGA, which switch fluorescence ratio is on record?
**A.** 1.09 ± 0.12

**Q.** For GGGGCGGAGG, which switch fluorescence ratio is on record?
**A.** 0.987 ± 0.047

**Q.** For GGGGCGGGGG, which switch fluorescence ratio is on record?
**A.** 1.02 ± 0.043

**Q.** How did the switch fluorescence ratio turn out when GGGGCGTGCA was run?
**A.** 1.03 ± 0.034

**Q.** GGGGCGTTTT was tested. Which switch fluorescence ratio did it give?
**A.** 0.998 ± 0.023

**Q.** Which switch fluorescence ratio does the source give for GGGGCTAAGA here?
**A.** 0.993 ± 0.015

**Q.** How did the switch fluorescence ratio turn out when GGGGCTATGT was run?
**A.** 1.08 ± 0.14

**Q.** How did the switch fluorescence ratio turn out when GGGGCTCATT was run?
**A.** 0.983 ± 0.021

**Q.** With GGGGCTGGAG as the sequence, how does the switch fluorescence ratio read?
**A.** 1.03 ± 0.063

**Q.** Which switch fluorescence ratio does the source give for GGGGCTGTGC here?
**A.** 0.976 ± 0.034

**Q.** Which switch fluorescence ratio does the source give for GGGGCTTACG here?
**A.** 0.9893 ± 0.0087

**Q.** Which switch fluorescence ratio does the source give for GGGGCTTGCG here?
**A.** 0.948 ± 0.045

**Q.** For GGGGCTTTAA, which switch fluorescence ratio is on record?
**A.** 1.18 ± 0.35

**Q.** For GGGGCTTTGG, which switch fluorescence ratio is on record?
**A.** 0.98 ± 0.025

**Q.** How did the switch fluorescence ratio turn out when GGGGCTTTTA was run?
**A.** 0.97 ± 0.01

**Q.** For GGGGGAAACG, which switch fluorescence ratio is on record?
**A.** 0.989 ± 0.031

**Q.** With GGGGGAAAGA as the sequence, how does the switch fluorescence ratio read?
**A.** 0.989 ± 0.047

**Q.** GGGGGAAAGC was tested. Which switch fluorescence ratio did it give?
**A.** 0.984 ± 0.049

**Q.** Which switch fluorescence ratio does the source give for GGGGGAAAGG here?
**A.** 1 ± 0.025

**Q.** GGGGGAACAC was tested. Which switch fluorescence ratio did it give?
**A.** 1.05 ± 0.044

**Q.** Which switch fluorescence ratio does the source give for GGGGGAAGAT here?
**A.** 1.01 ± 0.074

**Q.** Which switch fluorescence ratio does the source give for GGGGGAGGCC here?
**A.** 1.02 ± 0.056

**Q.** For GGGGGAGGGG, which switch fluorescence ratio is on record?
**A.** 1 ± 0.043

**Q.** GGGGGAGGTA was tested. Which switch fluorescence ratio did it give?
**A.** 0.977 ± 0.031

**Q.** For GGGGGAGGTC, which switch fluorescence ratio is on record?
**A.** 0.989 ± 0.021

**Q.** With GGGGGAGTTA as the sequence, how does the switch fluorescence ratio read?
**A.** 0.989 ± 0.026

**Q.** With GGGGGATAGT as the sequence, how does the switch fluorescence ratio read?
**A.** 0.998 ± 0.032

**Q.** With GGGGGATCGA as the sequence, how does the switch fluorescence ratio read?
**A.** 1.04 ± 0.086

**Q.** GGGGGATCTT was tested. Which switch fluorescence ratio did it give?
**A.** 1 ± 0.03

**Q.** GGGGGATGG was tested. Which switch fluorescence ratio did it give?
**A.** 0.994 ± 0.016

**Q.** With GGGGGATGTA as the sequence, how does the switch fluorescence ratio read?
**A.** 0.948 ± 0.032

**Q.** GGGGGATGTC was tested. Which switch fluorescence ratio did it give?
**A.** 1 ± 0.034

**Q.** For GGGGGATTTC, which switch fluorescence ratio is on record?
**A.** 1.12 ± 0.26

**Q.** For GGGGGATTTG, which switch fluorescence ratio is on record?
**A.** 0.998 ± 0.013

**Q.** How did the switch fluorescence ratio turn out when GGGGGCACTC was run?
**A.** 0.986 ± 0.031

**Q.** Which switch fluorescence ratio does the source give for GGGGGCCACT here?
**A.** 0.975 ± 0.041

**Q.** For GGGGGCCGGG, which switch fluorescence ratio is on record?
**A.** 1.01 ± 0.052

**Q.** For GGGGGCCTGT, which switch fluorescence ratio is on record?
**A.** 1.01 ± 0.035

**Q.** Which switch fluorescence ratio does the source give for GGGGGCGCGG here?
**A.** 0.996 ± 0.015

**Q.** Which switch fluorescence ratio does the source give for GGGGGCGGAA here?
**A.** 1 ± 0.027
